From patent US20220332804A1 (CSL INNOVATION, published 2022) come the findings set out here.

One may read the Kd as the equilibrium constant for the complex coming apart.

Numbering of substitutions follows the chain as printed.

Assay in all cases: SPR, antibody captured, C2 as analyte;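 further: biacore at 37 °C, anti-C2 mAbs held by immobilised goat anti-human IgG, C2 alanine or serine mutants injected, double-referenced sensorgrams fitted to a 1:1 kinetic or steady-state model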
In general terms: In SPR one partner is held on a chip, and binding of the other changes the refractive index at the surface.

The target in assay [1] is T1, human C2 D419A (human, UniProt P06681 21-752).
T1 sequence: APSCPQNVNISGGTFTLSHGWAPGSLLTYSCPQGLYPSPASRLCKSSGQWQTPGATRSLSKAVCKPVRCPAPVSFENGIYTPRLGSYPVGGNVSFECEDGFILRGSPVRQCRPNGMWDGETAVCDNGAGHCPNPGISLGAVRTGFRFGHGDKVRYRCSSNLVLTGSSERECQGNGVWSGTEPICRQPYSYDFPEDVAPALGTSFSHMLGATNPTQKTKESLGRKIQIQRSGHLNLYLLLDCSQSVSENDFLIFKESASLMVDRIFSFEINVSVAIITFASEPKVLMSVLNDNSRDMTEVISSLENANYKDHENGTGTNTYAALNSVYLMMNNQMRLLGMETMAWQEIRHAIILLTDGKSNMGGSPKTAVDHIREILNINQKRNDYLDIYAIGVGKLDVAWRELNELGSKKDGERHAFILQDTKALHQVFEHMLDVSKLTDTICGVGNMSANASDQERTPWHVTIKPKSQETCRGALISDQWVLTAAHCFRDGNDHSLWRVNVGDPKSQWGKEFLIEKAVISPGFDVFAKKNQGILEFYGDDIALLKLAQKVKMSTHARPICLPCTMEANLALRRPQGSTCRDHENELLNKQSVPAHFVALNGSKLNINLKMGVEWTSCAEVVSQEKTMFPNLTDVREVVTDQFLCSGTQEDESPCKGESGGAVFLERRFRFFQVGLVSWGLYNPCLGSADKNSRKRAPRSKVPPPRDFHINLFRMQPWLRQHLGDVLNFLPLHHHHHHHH

Assay [2] deals with T2, human C2 D441A (human, UniProt P06681 21-752).
T2 sequence: T1 sequence with A399D, D421A

Assay [3] has as its target T3, human C2 E450A (human, UniProt P06681 21-752).
T3 sequence: T1 sequence with A399D, E430A

Assay [4] addresses T4, human C2 N467A (human, UniProt P06681 21-752).
T4 sequence: T1 sequence with A399D, N447A

B1: RF16-242 (antibody, human IgG4 S228P, lambda, V domains shown)
VH: EVQLLQSGAEVKKPGESLKISCKGSGYSFTSYWIGWVRQMPGKGLEWMGIIYPGDSDTRYSPSFQGQVTISADKSISTAYLQWSSLKASDTAMYYCARRGHYGDYFDYWGQGTLVTVSS
VL: SYELTQPPSVSVSPGQTARITCSGDALPKKYAYWYHQKSGQAPVLVIYEDRRRPSEIPERFSGSSSGTMATLTITGAQVEDEGVYFCYSRDRAGNQRVFGGGTQLTVLG
notes: pH-dependent anti-C2 antibody from a phage display library
As for B1, the equilibrium dissociation constant (Kd) worked out at 10.5 nM in assay [1], 114 nM in assay [2], 20.3 nM in assay [3] and 13.4 nM in assay [4].
